# Results from patent publication US10344301, “Mutants of the bacteriophage lambda integrase” (AGENCY FOR SCIENCE, TECHNOLOGY AND RESEARCH).
# T1: C3-HIS integrase (E. coli minicircle) (Bacteriophage lambda, UniProt P03700 SEQ:1-356)
# T1 chain: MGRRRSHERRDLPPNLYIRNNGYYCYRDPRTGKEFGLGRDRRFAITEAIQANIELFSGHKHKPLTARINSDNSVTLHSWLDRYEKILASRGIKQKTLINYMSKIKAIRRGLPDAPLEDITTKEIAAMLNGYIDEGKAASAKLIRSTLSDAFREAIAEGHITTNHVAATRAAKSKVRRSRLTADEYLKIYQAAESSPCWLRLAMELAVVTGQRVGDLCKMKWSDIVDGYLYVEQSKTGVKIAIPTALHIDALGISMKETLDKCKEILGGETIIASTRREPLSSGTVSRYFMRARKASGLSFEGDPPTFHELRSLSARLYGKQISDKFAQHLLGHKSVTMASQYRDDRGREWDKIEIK
# Target: T1, C3-HIS integrase (E. coli minicircle)
# Assay: cell_activity; E. coli TG1 chromosomal attB integration; 27 colonies, ~90% correct
# Details: tags: His tag
# Description: The present example follows the methodology depicted in FIG. 2. C3INT-HIS-PET22b(+) was amplified with petF2 (SEQ ID NO: 10) and petR (SEQ ID NO: 11) and the PCR product subsequently intramolecularly ligated to produce a C3INT-HIS minicircle. attP-PET22b(+) was amplified with attP-F (SEQ ID NO: 12) and attPSOE-R (SEQ ID NO: 13) while PET22b(+) was amplified with TEM1prom-F (SEQ ID NO: 14) and TEM1promR (SEQ ID NO: 15) which produced PCR products encoding attP and ampicillin-resistant gene respectively. Splice overlap extension PCR (SOE-PCR) was carried out with these two PCR products using attP-F (SEQ ID NO: 12) and TEM1prom-R (SEQ ID NO: 15). The PCR product was subsequently intramolecularly ligated to produce attP-TEM1 minicircle. 100 ng of C3INT-HIS minicircle and 100 ng attP-TEM1 minicircle were combined and electroporated to 25 μL electrocompetent TG1 cells. The cells were allowed to recover for 1 hr before being plated on varying concentrations of ampicillin-LB agar plates (0.01 mg/mL, 0.02 mg/mL, 0.05 mg/mL, 0.07 mg/mL and 0.1 mg/mL). Incubation was carried out at 37° C. for 12-14 hrs to allow for expression of C3 integrase and chromosomal integration of the ampicillin-resistance cassette by C3 integrase. […]
binder,measurement,value
attB ; attP (dsDNA ; dsDNA) DNA 1: CTGCTTTTTTATACTAACTTG DNA 2: CAAGTTAGTATAAAAAAGCAG DNA 3: CAGCTTTTTTATACTAAGTTG DNA 4: CAACTTAGTATAAAAAAGCTG,binding signal,~12 fold vs Int-h/218
